Assay results reported in patent US20190016818A1, “ANTIBODIES AGAINST GLYPICAN-3 AND THEIR USES IN CANCER DIAGNOSIS AND TREATMENT” (LA JOLLA BIOLOGICS, INC., priority 2015, published 2019).

Assays:
Hep3B hepatoma cells = assay: Hep3B xenograft animal model with GES1 IgG; type: in vivo, NOD-SCID mice; settings: 200 mg/Kg sorafenib orally
Experimental: GES1 scFv antibody was humanized to obtain humanized IgG antibody (GES1 humanized scFv antibody) and a xenograft animal model was conducted. Hep3B hepatoma cells were cloned to NOD-SCID mice. After the tumors were generated, 1 mg/Kg and 5 mg/Kg of GES1 IgG were i.v. injected into the mice once a week. Another group of the mice were orally administered with 200 mg/Kg sorafenic.

[1] = tested on: HepG2 and HuH-7 ectopic xenografts; settings: cited from earlier work
[2] = tested on: GPC3-positive HepG2 cells and Hep 3B cells; assay: Immunofluorescence staining binding analysis; type: cell-based, human; settings: Hep 3B cells (FIG. 9A) and Hep G2 cells (FIG. 9B)
Experimental: HepG2, Hep3B, cells (2×10^5 cells/ml) were seeded on cover glass and fixed by incubating with equal volume of 8% freshly prepared ice-cold paraformaldehyde on ice for 15 min. After fixing, the cells were dehydrated in a sequential treatment of 70%, 95% and 99% methanol and rehydrated with 95% and 70% methanol. The slides were then overlaid with blocking buffer (1% BSA in 1×PBS) at room temperature (RT) for 1 hr. Following washing with 1×PBS, specific monoclonal mouse or scFv antibodies were incubated with cells at RT for one additional hr. Finally, their binding to GPC3 protein was detected by mouse anti-HA antibodies, followed by FITC-conjugated goat anti-mouse antibodies. Nuclei were counterstained with PI solution in parallel. The slides were examined using a Confocal Spectral Microscope Imaging System (TCS SP5, Leica). […] The partially purified scFv antibodies were examined for their binding activity to GPC3-positive HepG2 cells and Hep 3B cells.

Hep3B cells [3] = assay: Soft agar colony formation assay, Hep3B; type: cell-based, human; settings: 0.5 μM scFv, 4 weeks
Experimental: (§1) To determine the clonogenicity of HepG2, Hep3B, cells, 5×10^5 cells were pre-incubated in 2 ml DMEM medium containing anti-GPC3 antibodies at concentrations of 0.5-5 uM for 48 hr. Thereafter, cells were harvested, counted and transferred into semi-solid medium supplemented with 0.8% DMEM-methylcellulose and 30% FBS. Finally, 1 ml of the semi-solid medium containing 5×10^3 individual type of cell was plated onto 3.5 cm Petri-dishes. Triplicated Petri-dishes per treatment protocol will be cultivated for 5-7 days under standard conditions. Colony formation (clusters of >30 cells) will be visualized by staining with crystal violet and scored by an inverted microscope. […] The effect of GPC3 scFv on anchorage independent growth of HepG2 and Hep3B cells was explored. Hepatoma cells were treated with 0.5 μM of G5S1, GES1 or α-RTS6 (neg) scFv antibodies for 1 hr and suspended in medium containing 0.4% low melting agarose and plated onto solidified 0.9% agarose in medium at a density of 1×10^5 cells per dish. After incubating for 4 weeks, the number of colonies was counted and recorded. […] The exact reason for the distinct inhibition on 2 cell lines is presently not known.

Hep3B xenograft = assay: Tumor xenograft model, Ki-67 immunohistochemistry of tumor tissue; type: in vivo, NOD-SCID mice; settings: 800 ug/mouse/per time i.v.; compared to untreated groups
Experimental: NOD-SCID mice were used. Briefly, 4-week-old female […] mice were injected subcutaneously with 4×10^6 of HepG2 and Hep3B cancer cells at a single dorsal site. At day 14, tumor-bearing mice were randomized into experimental groups (5 per group) and treated with anti-GPC3 antibodies and positive control with sorafenib accordingly. 400 ug or 800 ug of antibodies were given through intravenous (i.v.) injection every 3 days for 3 weeks. Tumor size was measured every 2 days with calipers until animals are sacrificed. At the time of sacrifice, tumors were dissected and weighted.
Tissue sections from xenograft tumor tissues in mice were de-waxed in xylene and rehydrated through graded alcohols. The antigen retrieval was carried out by heating the rehydrated tissues in 10 mM sodium citrate (pH 6.0) for 20 min. After washing with buffer containing 10 mM Tris-HCl (pH 7.4) and 150 mM sodium chloride, the sections were treated with 3% hydrogen peroxide for 5 min. Anti-Ki-67 antibodies (commercial polyclonal antibody) was be applied for 1 hr at room temperature. Optimal horseradish peroxidase-conjugated secondary antibodies and diaminobenzidine were added sequentially to detect the Ki-67 proliferation marker expression in the examined tissues. The slides were counterstained with GM hematoxylin solution. […]

HepG2 cells [4] = assay: Proliferation (MTT) assay; type: cell-based, human
Experimental: A volume of 100 μl DMEM medium containing 5×10^3 HepG2, Hep3B, wherein cells were seeded onto 96-well plates. […] Thereafter, 10 μl of 3-[4,5-dimethylthiazol-2-yl]-2,5-diphenyltetrazolium bromide (MTT; 10 mg/ml) were added to determine the number of surviving cells. The supernatant was removed after 3 hr of incubation, and formazan crystals that had been developed were dissolved by adding of 100 μl acidified 2-propanol/well (0.04 N HCl). Extinction was measured by an automated microtiter plate reader at 540 nm. Unrelated anti-snake venom antibodies (neg) were included in control experiments. […] HepG2 cells were cultured in the medium containing G5S1, GES1, GES6 or control scFv antibodies at final concentrations of 0.1 μM for 1-6 days.

GPC3 [5] = molecular target: T1, GPC3 (Homo sapiens, UniProt P51654); assay: ELISA binding to commercially available GPC3 immobilized on plate wells; design: analysis of commercial GPC3_extracellular domain (ECD) and truncated (C185) proteins; purchased; settings: partially purified scFv
Experimental: (§2) Nitrocellulose membranes were blocked with 5% skim milk in TBST for 1 hr. Polyclonal goat anti-chicken IgY light chain antibodies were added at 1:5000 dilution and incubated for an additional hr. The membranes were washed with TBST three times and the bound antibodies were detected by adding horseradish peroxidase (HRP)-conjugated donkey anti-goat Ig antibodies at 1:3000 dilutions. After three washings, the membranes were developed with diaminobenzidine (DAB) substrate until the desired intensity was reached. The IgY antibodies or the E. coli-expressed scFv antibodies were purified and incubated with the purified GPC3 protein or cellular lysates of GPC3-positive HepG2 and Hep3B cells immobilized on nitrocellulose membranes or ELISA plate wells. Their binding was subsequently detected by adding goat anti-mouse IgG or anti-chicken IgY light chain followed by HRP-conjugated donkey anti-goat Ig antibodies as described above.
HepG2, Hep3B, cells (2×10^5 cells/ml) was seeded on cover glass and fixed by incubating with equal volume of 8% freshly prepared ice-cold paraformaldehyde on ice for 15 min. After fixing, the cells were dehydrated in a sequential treatment of 70%, 95% and 99% methanol and rehydrated with 95% and 70% methanol. […] Finally, their binding to GPC3 protein was detected by mouse anti-HA antibodies, followed by FITC-conjugated goat anti-mouse antibodies. […]

[6] = tested on: GPC3-positive Hep3B, HepG2 and HepJ5 cells; assay: Flow cytometry binding analysis; type: cell-based, human; settings: 100 μg/ml
Experimental: A total of 2×10^6 HepG2, Hep3B, cells were harvested and fixed with 2% paraformaldehyde as described previously with minor modification (Leu et al., 2010). The GPC3 molecule expressed in these […] cells were detected by adding purified chicken scFv antibodies, followed by mouse anti-HA (1:200) and FITC-conjugated goat anti-mouse antibodies (1:200). The results were analyzed using the FACScan flow cytometer Negative controls were performed by omitting the primary scFv antibodies, while positive controls were performed using commercial polyclonal anti-human GPC3 antibodies (1:200) instead of home-made chicken anti-GPC3 scFv antibodies. […] The partially purified scFv antibodies were examined for their binding activity to GPC3-positive Hep3B, HepG2 and HepJ5 cells.

Hep3B cells [7] = assay: Cell migration (wounded monolayer) assay; type: cell-based, human; settings: Hep3B monolayers wounded, 0.5 uM scFv, 24 hr
Experimental: For cell migration assays, 1×10^3 cells were incubated with anti-GPC3 antibodies at concentrations of 1 to 200 μg/ml for 48 hr before being transferred into a transwell migration system. The cells were plated onto a polycarbonate filter membrane with a pore size of 8 μm (upper layer) and incubated for different time interval at 37° C. in 5% CO2 incubator. Serum free medium containing 0.5 mM EDTA was used for washing off the cells from the lower part of the membrane to lower wells. The cells in the lower wells were collected with centrifugation at 3000 g for 5 min and perform direct cell counting under microscope. The mean growth rate (MGR) of cells after migration through the polycarbonate filter was determined by the equation: MGR=log 2 Nt−log2 N0/t, with N0 as initial cell number, Nt as final cell number and t as time period of cell incubation in days. […] To explore whether the GPC3 protein is essential for cell migration, Hep3B cells were cultured until confluence. The monolayers were wounded, cultured with medium containing 0.5 uM of G5 S1 or GES1 and two controls (NC-70sc or NC-spE) scFv antibodies and analyzed after 24, hr. […] The effect of G5S1 scFv was minimal and reached to the basal level obtained in medium without any scFv antibody.

HepG2 cells [8] = assay: Soft agar colony formation assay, HepG2; type: cell-based, human; settings: 0.5 μM scFv, 4 weeks
Experimental: as §1

GPC3 [9] = molecular target: T1, GPC3; assay: Western blot of GPC3 extracellular domain protein and hepatoma cell lysates; type: binding; design: purchased; settings: commercial GPC3 extracellular domain protein under reducing condition; lysates of hepatoma cell lines
Experimental: as §2

GPC3 in Hep3B cells = molecular target: T2, GPC3 in Hep3B cells (Homo sapiens, UniProt P51654); assay: Immunoprecipitation assay, Hep3B cell lysate; type: binding; settings: Hep3B total cell lysate; data very preliminary
T2 construct: endogenous in cells; host or cells: Hep3B
Experimental: (§3) Antibody beads were prepared by covalently linking 100 ul of Ni-NTA Sepharose (Amersham Biosciences) and 1 mg of anti-GPC3 scFv antibodies with 20 mM dimethyl pimelimidate. Then, 500 ul of HepG2 and Hep3B cell lysates were be mixed with 25 ul of antibody beads and incubated for 2 hr at 4° C. After extensive washing with PBST, antibody beads will be resuspended in 50 ul of SDS-PAGE loading buffer, boiled for 5 min, and subsequently subjected to western blotting analysis. […] The total cell lysates of Hep3B and HepG2 were incubated with a mixture of his-beads and G5S1, GES1, GES6 or 70SC control scFv antibodies individually. After washing, the his-beads complex was subjected to SDS-PAGE and western blot analysis. […] By contrast, the protein in HepG2 cells was precipitated by GES1, G5S1 and GES6 scFv antibodies. However, the data were very preliminary and need further verification.

GPC3 in HepG2 cells = GPC3 in HepG2 cells (Homo sapiens, UniProt P51654); assay: Immunoprecipitation assay, HepG2 cell lysate; type: binding; design: endogenous in cells; host or cells: HepG2; settings: HepG2 total cell lysate; data very preliminary
Experimental: as §3

HepG2 cells [10] = assay: Cell cycle analysis (propidium iodide, FACS); type: cell-based, human
Experimental: Fixed cells were stained with propidium iodide and analyzed by FACS. The cell-cycle distribution of different phases was analyzed with FlowJo v 9.0. FIGS. 12 A, B and C show the results of cell cycle analysis. After treated with G5S1, GES1 or α-RTS6 (neg) scFv antibodies for 48 hrs, the adherent HepG2 cells were detached, washed, and exposed to 70% ethanol on 4° C. overnight. After washing, cells were incubated with […] propidium iodide and […] RNaseA. FACS was carried out and data were statistically analyzed by FlowJo software.

Molecule: CNC(=O)c1cc(Oc2ccc(NC(=O)Nc3ccc(Cl)c(C(F)(F)F)c3)cc2)ccn1 [sorafenib]
- tumor growth inhibition (Hep3B hepatoma cells): 48.8%

Molecule: hGC33: Humanized GC33
- efficacy against the HepG2 xenograft relative to GC33 [1]: as effective as GC33

B1: GES1: chicken anti-GPC3 scFv antibody; heavy chain SEQ ID NO: 30, light chain SEQ ID NO: 38 (antibody, V domains shown)
VH: EVQLLESGGGLVQPGGSLRLSCAASGFTFSSFNMFWVRQAPGKGLEWVSWISSTGSRTKYADSVKGRFTISRDNSKNTLYLQMNSLRAEDTATYYCAKSASRGAGRIDAWGRGTLVTVSS
VL: ALTQPPSASGSPGQSITISCTGTGGSYGWYQQHAGKAPKLVIYNNNKRPSGVPDRFSGSKSGNTASLTVSGLQTDDEAVYYCGSRDSSYFGIFGGGTKLTVL
modifications: scFv linker
- binding signal to cell surface (immunofluorescence) [2]: various but significant binding signal
- inhibitory effect on colony formation (Hep3B cells [3]): not as obvious
- Ki-67 expression in tumor sections (Hep3B xenograft): reduced level of Ki-67 expression
- inhibition of cell proliferation, concentration dependence (HepG2 cells [4]; 0, 0.5, 1, 2, 4 and 8 μM for 3 days): inhibited the cell proliferation in a dosage-dependent manner
- suppression on cell proliferation (HepG2 cells [4]; HepG2 cells, 0.1 μM, day 6): approximately 60%
- binding activity to GPC3 on ELISA (GPC3 [5]): reacted significantly with GPC3
- binding signal to hepatoma cells (flow cytometry) [6]: various but significant binding signal
- effect on cell migration (Hep3B cells [7]): partial inhibitory effect
- inhibitory effect on colony formation (HepG2 cells [8]): significant inhibitory effort on colony formation
- fragment of GPC3 identified on western blot (GPC3 [9]): can identify C-terminus fragment of GPC3 and GPC3 in cellular lysates
- precipitation of protein with predicted molecular weight of GPC3 (GPC3 in Hep3B cells): precipitated
- precipitation of protein with predicted molecular weight of GPC3 (GPC3 in HepG2 cells): precipitated
- cell cycle arrest (HepG2 cells [10]; 0.5 μM, 48 hrs): arrested in G1 phase
- cell population in subG1 stage (HepG2 cells [10]; treated 48 hrs): 28.8%
